Assay results taken from paper PMC9531996 (The Journal of Cell Biology, 2022).

B1: GST-SNX2 (natural protein)
chain: MAAEREPPPLGDGKPTDFEDLEDGEDLFTSTVSTLESSPSSPEPASLPAEDISANSNGPKPTEVVLDDDREDLFAEATEEVSLDSPEREPILSSEPSPAVTPVTPTTLIAPRIESKSMSAPVIFDRSREEIEEEANGDIFDIEIGVSDPEKVGDGMNAYMAYRVTTKTSLSMFSKSEFSVKRRFSDFLGLHSKLASKYLHVGYIVPPAPEKSIVGMTKVKVGKEDSSSTEFVEKRRAALERYLQRTVKHPTLLQDPDLRQFLESSELPRAVNTQALSGAGILRMVNKAADAVNKMTIKMNESDAWFEEKQQQFENLDQQLRKLHVSVEALVCHRKELSANTAAFAKSAAMLGNSEDHTALSRALSQLAEVEEKIDQLHQEQAFADFYMFSELLSDYIRLIAAVKGVFDHRMKCWQKWEDAQITLLKKREAEAKMMVANKPDKIQQAKNEIREWEAKVQQGERDFEQISKTIRKEVGRFEKERVKDFKTVIIKYLESLVQTQQQLIKYWEAFLPEAKAIA
B2: GST-SNX27(PX) (domain or fragment)
chain: EKQAVPISVPRYKHVEQNGEKFVVYNVYMAGRQLCSKRYREFAILHQNLKREFANFTFPRLPGKWPFSLSEQQLDARRRGLEEYLEKVCSIRVIGESDIMQEFLSESDENYNGVS
B3: WDR91-His6 (natural protein)
chain: MAEAVERTDELVREYLLFRGFTHTLRQLDAEIKADKEKGFRVDKIVDQLQQLMQVYDLAALRDYWSYLERRLFSRLEDIYRPTIHKLKTSLFRFYLVYTIQTNRNDKAQEFFAKQATELQNQAEWKDWFVLPFLPSPDTNPTFATYFSRQWADTFIVSLHNFLSVLFQCMPVPVILNFDAECQRTNQVQEENEVLRQKLFALQAEIHRLKKEEQQPEEEEALVQHKLPPYVSNMDRLGDSELAMVCSQRNASLSQSPRVGFLSSLLPQSKKSPSRLSPAQGPPQPQSSAKKESFGGQGTKGKDPTSGAKDGKSLLSGLATGESGWSQHRQRRLQDHGKERKELFSTTTSQCAEKKPEASGPEAEPCPELHTEPVEPLTRASSAGPEGGGVRPEQPFIVLGQEEYGEHHSSIMHCRVDCSGRRVASLDVDGVIKVWSFNPIMQTKASSISKSPLLSLEWATKRDRLLLLGSGVGTVRLYDTEAKKNLCEININDNMPRILSLACSPNGASFVCSAAAPSLTSQVDFSAPDIGSKGMNQVPGRLLLWDTKTMKQQLQFSLDPEPIAINCTAFNHNGNLLVTGAADGVIRLFDMQQHECAMSWRAHYGEVYSVEFSYDENTVYSIGEDGKFIQWNIHKSGLKVSEYSLPSDATGPFVLSGYSGYKQVQVPRGRLFAFDSEGNYMLTCSATGGVIYKLGGDEKVLESCLSLGGHRAPVVTVDWSTAMDCGTCLTASMDGKIKLTTLLAHKA

Experiments:
Test in all cases: pull-down
[1] = target: B3
[2] = target: T1, His6-WDR91(392-747) (UniProt A4D1P6 392-747)
T1 sequence: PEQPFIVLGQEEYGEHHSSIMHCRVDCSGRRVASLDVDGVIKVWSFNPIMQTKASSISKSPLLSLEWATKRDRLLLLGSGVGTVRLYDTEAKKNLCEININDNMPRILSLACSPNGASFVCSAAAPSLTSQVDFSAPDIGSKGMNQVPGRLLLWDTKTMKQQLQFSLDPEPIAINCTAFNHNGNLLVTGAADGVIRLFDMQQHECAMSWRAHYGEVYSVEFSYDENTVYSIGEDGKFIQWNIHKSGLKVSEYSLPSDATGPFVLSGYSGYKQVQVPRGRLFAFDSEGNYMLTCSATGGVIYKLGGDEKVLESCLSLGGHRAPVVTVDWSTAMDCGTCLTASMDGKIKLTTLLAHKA

[3] = target: GST-VPS35 (UniProt Q96QK1 1-796)
[4] = target: GST-SNX27 (UniProt Q96L92 1-541)

B1: binds [1].

B2: binds [2]; binds [1].

B3: binds [3]; binds [4].
